This passage reports Kd results from publication PMC4284078 (Virology, 2014).

In this assay the target is recombinant full-length HSP70 in fusion with N-terminal maltose binding protein (MBP) (UniProt P0DMV8 1-641). The assay can be described thus: SPR. (In general: SPR reads the build-up and loss of mass on a sensor chip optically.)
Sequence of recombinant full-length HSP70 in fusion with N-terminal maltose binding protein (MBP) (P0DMV8 whole entry, the tested form may be a part): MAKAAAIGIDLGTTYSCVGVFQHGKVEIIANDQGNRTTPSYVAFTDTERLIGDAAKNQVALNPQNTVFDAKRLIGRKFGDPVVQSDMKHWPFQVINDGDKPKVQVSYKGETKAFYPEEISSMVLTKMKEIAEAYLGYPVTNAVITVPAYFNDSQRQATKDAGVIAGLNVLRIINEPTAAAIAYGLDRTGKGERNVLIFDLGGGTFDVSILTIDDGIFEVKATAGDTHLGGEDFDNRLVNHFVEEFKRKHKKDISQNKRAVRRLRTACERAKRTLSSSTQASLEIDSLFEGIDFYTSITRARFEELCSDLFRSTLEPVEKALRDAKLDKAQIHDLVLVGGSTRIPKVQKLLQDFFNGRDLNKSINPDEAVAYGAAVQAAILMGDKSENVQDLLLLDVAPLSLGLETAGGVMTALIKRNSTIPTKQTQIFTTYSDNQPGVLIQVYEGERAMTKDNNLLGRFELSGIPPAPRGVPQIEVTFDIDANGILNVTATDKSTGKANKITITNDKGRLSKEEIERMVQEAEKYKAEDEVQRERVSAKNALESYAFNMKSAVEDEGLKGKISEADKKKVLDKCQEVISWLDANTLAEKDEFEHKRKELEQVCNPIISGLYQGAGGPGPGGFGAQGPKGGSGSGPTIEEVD

B1: NS5A domain I (domain or fragment)
chain: SGSWLRDIWDWICEVLSDFKTWLKAKLMPQLPGIPFVSCQRGYRGVWRGDGIMHTRCHCGAEITGHVKNGTMRIVGPRTCKNMWSGTFFINAYTTGPCTPLPAPNYKFALWRVSAEEYVEIRRVGDFHYVSGMTTDNLKCPCQIPSPEFFTELDGVRLHRFAPPCKPLLREEVSFRVGLHEYPVGSQLPCEPEPDVAVLTSMLTDPSHITAEA
Regarding B1, the Kd came out at 316 nM.

One may read the Kd as a measure of binding affinity in units of concentration.
